Assay results from PMC9579148.

What was measured:
[1] = biological target: recombinant SARS-CoV-2 M^pro (Proteros) (SARS-CoV-2)
[2] = biological target: recombinant SARS-CoV-2 M^pro (Proteros) (SARS-CoV-2); assay: FRET enzymatic inhibition assay

Substance	IC50 of inhibition of M^pro enzymatic activity (FRET substrate cleavage) [1]	Kd [2]
compound 4 (acetyl-Gly-Phe-His aldehyde, tripeptide derivative of AT1001)	2510 nM	1260 nM
compound 57 (BOC-Gly-Phe-His aldehyde) (peptide)	6490 nM	3260 nM
compound 58 (octanoyl-Gly-Phe-His aldehyde) (peptide)	2370 nM	1190 nM
